Test results as given in US20180051253.

Biological target: T1, Nuclear Respiratory Factor 1 (NRF1), Q16656
T1 chain: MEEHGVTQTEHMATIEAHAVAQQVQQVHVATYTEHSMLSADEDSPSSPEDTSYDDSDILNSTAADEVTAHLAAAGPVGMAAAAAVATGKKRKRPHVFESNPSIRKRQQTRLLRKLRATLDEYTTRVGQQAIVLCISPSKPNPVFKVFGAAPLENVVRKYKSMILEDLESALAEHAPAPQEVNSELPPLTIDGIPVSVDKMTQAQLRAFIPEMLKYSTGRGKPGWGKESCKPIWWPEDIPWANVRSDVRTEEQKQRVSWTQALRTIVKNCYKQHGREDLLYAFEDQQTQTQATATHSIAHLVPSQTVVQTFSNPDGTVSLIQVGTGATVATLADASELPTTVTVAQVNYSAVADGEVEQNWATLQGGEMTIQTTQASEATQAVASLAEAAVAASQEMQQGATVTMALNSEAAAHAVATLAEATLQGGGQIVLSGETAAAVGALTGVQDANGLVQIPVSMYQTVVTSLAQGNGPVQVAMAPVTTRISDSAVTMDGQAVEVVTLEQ

B1: endogenous SIRT7 (protein)
chain: MAAGGLSRSERKAAERVRRLREEQQRERLRQVSRILRKAAAERSAEEGRLLAESADLVTELQGRSRRREGLKRRQEEVCDDPEELRGKVRELASAVRNAKYLVVYTGAGISTAASIPDYRGPNGVWTLLQKGRSVSAADLSEAEPTLTHMSITRLHEQKLVQHVVSQNCDGLHLRSGLPRTAISELHGNMYIEVCTSCVPNREYVRVFDVTERTALHRHQTGRTCHKCGTQLRDTIVHFGERGTLGQPLNWEAATEAASRADTILCLGSSLKVLKKYPRLWCMTKPPSRRPKLYIVNLQWTPKDDWAALKLHGKCDDVMRLLMAELGLEIPAYSRWQDPIFSLATPLRAGEEGSHSRKSLCRSREEAPPGDRGAPLSSAPILGGWFGRGCTKRTKRKKVT
B1 was tested, and the “SIRT7 occupancy at gene promoters (ChIP-qPCR) after NRF1 siRNA” value was “NRF1 knockdown (KD) using siRNA reduced SIRT7 occupancy at the promoters of mRPs and mTFs, but not RPS20”.
